Changes are numbered by the printed parent chain. Names and notes keep the numbering of the source.
T1: human BCMA (B-cell maturation antigen) on cells (human, UniProt Q02223 1-184)
T1 construct: whole, on cells; also called hBCMA; hBCMA/HEK293 cell line
T1 sequence (looked up): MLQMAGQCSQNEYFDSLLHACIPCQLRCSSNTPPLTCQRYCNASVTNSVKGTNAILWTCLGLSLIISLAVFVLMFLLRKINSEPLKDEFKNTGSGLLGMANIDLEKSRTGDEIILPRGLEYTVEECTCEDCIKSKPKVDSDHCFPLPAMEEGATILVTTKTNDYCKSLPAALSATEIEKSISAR

T2: BCMA peptide 30SNTPPLTCQR39 (human)
T2 construct: Peptide of the CLIPS library; recognised in a linear form
T2 peptide: SNTPPLTCQR

B1: BCMA-18 anti-BCMA scFv (scFv)
scFv: EVQLLESGGGLVQPGGSLRLSCAASGFTFSSYWMSWHRQAPGKGPEWVAHINQDGSEKYYVDSVKGRFTISRDNAESSLYLQMNSLRAEDTAVYYCARWLAVTNWGQGTLVTVSSGGGGSGGGGSGGGGSQSVLTQPPSASGTPGQRVTISCSGSGSNIGSNDVSWYQQIPGTAPKLLIYWNDQRPSGVPDRFSGSKSGTSASLAISGLRSEDEADYYCAAWDDSLNGWVFGGGTKLTVL
notes: VH-(G4S)3-VL scFv
B2: BCMA-22 anti-BCMA scFv (scFv)
scFv: EVQLVESGGGLVKPGGSLRLSCAASGFTFSDYYMSWIRQAPGKGLEWVSYISSSGSTIYYADSVKGRFTISRDNAKNSLYLQMNSLRAEDTAVYYCAKVDGDYTEDYWGQGTLVTVSSGGGGSGGGGSGGGGSQSALTQPASVSGSPGQSITISCTGSSSDVGKYNLVSWYQQPPGKAPKLIIYDVNKRPSGVSNRFSGSKSGNTATLTISGLQGDDEADYYCCSYGGSRSYVFGTGTKVTVL
notes: VH-(G4S)3-VL scFv
B3: BCMA-20 anti-BCMA scFv (scFv)
scFv: EVQLLESGGGLVQPGRSLRLSCAASGFTFDDYAMHWVRQAPGKGLEWVSGISWNSGSIGYADSVKGRFTISRDNAKNSLYLQMNSLRAEDTALYYCAKGGLGITPYYFDYWGQGTLVTVSSGGGGSGGGGSGGGGSQPVLTQPPSASGTPGQRVTISCSGGKTVNWFRQVPGTAPQLLIYSNDQRPSGVPDRFSGSKSGSSASLDISGLQSEDEAYYYCGSWDDSLNAWVFGGETKLTVL
notes: VH-(G4S)3-VL scFv
B4: BCMA-21 anti-BCMA scFv (scFv)
scFv: EVQLVESGGGLVKPGGSLKLSCAASGFTFSDYYMSWIRQAPGKGLEWVSYISSSGSTIYYADSVKGRFTISRDNAKNSLYLQMNSLRAEDTAVYYCAKVDGGYTEDYWGQGTLVTVSSGGGGSGGGGSGGGGSQSVLTQPPSASGTPGQRVTISCSGSGSNIGSNDVSWYQQIPGTAPKLLIYWNDQRPSGVPDRFSGSKSGISASLAISGLRSEDEADYYCAAWDDSLNGYVFGTGTKVTVL
notes: VH-(G4S)3-VL scFv
B5: BCMA-12 anti-BCMA scFv (scFv)
scFv: EVQLVESGGGLVKPGGSLRLSCAASGFTFSDYYMSWIRQAPGKGLEWVSYISSSGSTIYYADSVKGRFTISRDNAKNSLYLQMNSLRAEDTAVYYCAKVDGPPSFDIWGQGTMVTVSSGGGGSGGGGSGGGGSQSALTQPPSVSAAPGQKVTISCSGSRSNIGNNYVSWYQQLPGTAPKLLIYDNAKRPSGIPDRFSGSKSGTSATLDIAGLQTGDEADYYCQVWDSSSDHWVFGGGTKLTVL
notes: VH-(G4S)3-VL scFv
B6: BCMA-4 anti-BCMA scFv (scFv)
scFv: QVQLVQSGGGLVQPGRSLRLSCTASGFTFGDYAMSWFRQAPGKGLEWVGFIRSKAYGGTTEYAASVKGRFTISRDDSKSIAYLQMNSLKTEDTAVYYCAAWSAPTDYWGQGTLVTVSSGGGGSGGGGSGGGGSAIRMTQSPSSLSASLGDRVTITCRASQDIRNSLAWYQQRPGKAPKLLLSAASRLESGVPSRFSGTTSGAEYALSISSLQPEDVASYFCQQYYSLPLSFGGGTKVEIK
notes: VH-(G4S)3-VL scFv
B7: BCMA-10 anti-BCMA scFv (scFv)
scFv: EVQLVESGGGLVKPGGSLRLSCAASGFPFSDYYMSWIRQAPGKGLEWVSYISSSGSTIYYADSVKGRFTISRDNAKNSLYLQMNSLRAEDTAVYYCAKVDGPPSFDIWGQGTMVTVSSGGGGSGGGGSGGGGSSYVLTQPPSVSVAPGQTARITCGGNNIERKNVHWYQQKPGQAPVPVVYDDSDRASGIPERFSASNSGNTATLTISGAQATDEAEYYCQAWDSSSTLYVFGTGTKLTVL
notes: VH-(G4S)3-VL scFv
B8: BCMA-9 anti-BCMA scFv (scFv)
scFv: EVQLVQSGGGLVKPGGSLRLSCAASGFTFSDYYMSWIRQAPGKGLEWVSYISSSGSTIYYADSVKGRFTISRDNAKNSLYLQMNSLRAEDTAVYYCARVDGDYVDDYWGQGTLVTVSSGGGGSGGGGSGGGGSSYELTQPPSVSVAPGQTARVTCGANNIGSKSVHWYQQKPGQAPMLVVYDDDDRPSGIPERFSGSNSGNTATLTISGVEAGDEADYFCHVWDRSRDHYVFGTGTKLTVL
notes: VH-(G4S)3-VL scFv
B9: BCMA-7 anti-BCMA scFv (scFv)
scFv: QVQLVQSGGGLVQPGRSLRLSCTASGFTFGDYAMSWFRQAPGKGLEWVGFIRSKAYGGTTEYAASVKGRFTISRDDSKSIAYLQMNSLKTEDTAVYYCAAWSAPTDYWGQGTLVTVSSGGGGSGGGGSGGGGSVIQLTQSPSSLSASVGDRVTITCRASQDIGDYLAWFQQRPGKAPKSLIYVASTLQSGVPSRFSGSGSGTHFTLTINSLQPEDFATYYCQQYHSHPWTFGPGTKVDIK
notes: VH-(G4S)3-VL scFv
B10: BCMA-2 anti-BCMA scFv (scFv)
scFv: EVQLVESGGGLVKPGGSLRLSCAASGFTFSDYYMSWIRQAPGKGLEWVSYISSSGSTIYYADSVKGRFTISRDNAKNSLYLQMNSLRAEDTAVYYCAKVDGPPSSDIWGQGTMVTVSSGGGGSGGGGSGGGGSEIVMTQSPATLSVSPGETATLSCRASQSIKTNLAWYQQKPGQAPRLLIYAASTRATGIPDRFSGSGSGTDFTLTITRLEPEDFAVYYCQQYGSSPTFGRGTKLEIK
notes: VH-(G4S)3-VL scFv
B11: BCMA-8 anti-BCMA scFv (scFv)
scFv: QVQLVQSGGGLVQPGRSLRLSCTASGFTFGDYAMSWFRQAPGKGLEWVGFIRSKAYGGTTEYAASVKGRFTISRDDSKSIAYLQMNSLKTEDTAVYYCAAWSAPTDYWGQGTLVTVSSGGGGSGGGGSGGGGSDIVMTQSPDSLAVSLGERATINCKSSQSVLYSSNNKNYLAWYQQKPGQPPKLLIYWASTRESGVPDRFSGSGSGTDFTLTISSLQAEDVAVYYCQQYYSTPYTFGQGTKLEIK
notes: VH-(G4S)3-VL scFv
B12: BCMA-5 anti-BCMA scFv (scFv)
scFv: B11 scFv with Y235W, L243V, E244D
notes: VH-(G4S)3-VL scFv
B13: BCMA-1 anti-BCMA scFv (scFv)
scFv: QVQLVQSGGGLVQPGRSLRLSCTASGFTFGDYAMSWFRQAPGKGLEWVGFIRSKAYGGTTEYAASVKGRFTISRDDSKSIAYLQMNSLKTEDTAVYYCAAWSAPTDYWGQGTLVTVSSGGGGSGGGGSGGGGSDIVMTQSPDSLSVSPGERATISCKSSQSVLSTSNNKNYLAWYQQKPGQPPRLLLYWASTREAGVPDRFSGSGSGTDFTLTISSLQAEDVAVYYCQQYFSSPYTFGHGTKLEIK
notes: VH-(G4S)3-VL scFv
B14: BCMA-31 anti-BCMA scFv (scFv)
scFv: B11 scFv with Q1E, I135V, N155S, Y164N, L172V, Q176K, L186V, Y188S, E244D
notes: VH-(G4S)3-VL scFv
B15: BCMA-3 anti-BCMA scFv (scFv)
scFv: B11 scFv with A145V, Y164H, S232T, Y235L, Q239G, L243V
notes: VH-(G4S)3-VL scFv
B16: BCMA-32 anti-BCMA scFv (scFv)
scFv: QVQLVESGGGLVKPGGSLRLSCAASGFTFSDYYMSWIRQAPGKGLEWVSYISSSGSTIYYADSVKGRFTISRDNAKNSLYLQMNSLRAEDTAVYYCAKVDGPPSFDIWGQGTMVTVSSGGGGSGGGGSGGGGSQTVVTQPPSVSVAPGQTARITCGGNNIGSKGVHWYRQRPGQAPEVVIYDDSDRPSGVPDRFSGSNSGNTATLTVRGVEAGDEADYYCQVWDSSSDHWVFGGGTKLTVL
notes: VH-(G4S)3-VL scFv
B17: BCMA-23 anti-BCMA scFv (scFv)
scFv: B2 scFv with C224S
notes: BCMA-22 with the first residue of CDR-L3 (cysteine) replaced by serine
B18: BCMA-25 anti-BCMA scFv (scFv)
scFv: EVQLVQSGGGLVQPGRSLRLSCTASGFTFGDYAMSWFRQAPGKGLEWVGFIRSKAYGGTTEYAASVKGRFTISRDDSKSIAYLQMNSLKTEDTAVYYCAAWSAPTDYWGQGTLVTVSSGGGGSGGGGSGGGGSDIQMTQSPAFLSASVGDRVTVTCRASQGISNYLAWYQQKPGNAPRLLIYSASTLQSGVPSRFRGTGYGTEFSLTIDSLQPEDFATYYCQQSYTSRQTFGPGTRLDIK
notes: VH-(G4S)3-VL scFv

What follows are binders tested against T1, human BCMA (B-cell maturation antigen) … (assay: flow cytometry, hBCMA-expressing HEK293 against parental HEK293 cells).
Description: Binding of exemplary scFv clones to hBMCA-expressing HEK293 cells was assessed and binding was compared to parental HEK293 cells.

| fold selective binding (hBCMA-expressing HEK293 over parental HEK293 cells) | Binder |
| --- | --- |
| 2.2 fold | B1 |
| 7.5 fold | B2 |
| 10.8 fold | B3 |
| 3.4 fold | B4 |

These binders were tested against T1, human BCMA (B-cell maturation antigen) … (assay: flow cytometry, hBCMA-overexpressing HEK293 compared with OPM2 and RPMI-8226 cells).
Description: Binding of exemplary scFv clones to hBMCA-overexpressing HEK293 cells as compared to OPM2 and RPMI-8226 cell lines that express moderate levels of endogenous BCMA was assessed.

| binding result | Binder |
| --- | --- |
| binds | B5 |
| binds | B6 |
| binds | B7 |
| binds | B8 |
| binds | B9 |
| binds | B10 |
| binds | B11 |
| binds | B12 |
| binds | B13 |
| binds | B14 |
| binds | B15 |
| binds | B16 |

Target: T2, BCMA peptide 30SNTPPLTCQR39
Test: CLIPS peptide array ELISA
Description: Epitopes recognized, e.g., specifically bound to, by exemplary anti-BCMA scFv clones (BCMA-1, BCMA-5, BCMA-9, BCMA-23, BCMA-25, BCMA-26, BCMA-52 and BCMA-55 anti-BCMA scFvs), were assessed using full discontinuous epitope mapping by Chemical Linkage of Peptides onto Scaffolds (CLIPS; Pepscan Presto BV, Lelystad, The Netherlands; see, e.g., Timmerman et al., (2007) J. Mol. Recognit. 20: 283-329). Mapping was carried out using anti-BCMA scFv clones, such as those fused with mouse Fc (scFv-mFc).
Linear and conformational peptide libraries of amino acid residues 1-54 of human BCMA (set forth as amino acid residues 1-54 of SEQ ID NO:367) were generated based on a combinatorial matrix design. Linear peptides and structural mimetics including single loop, α-helix, β-turn, combinatorial and linear disulfide bridge mimics, and discontinuous epitope mimics were used, along with positive and negative control peptides, on an amino-functionalized solid support.
Affinities for binding to the peptides in the epitope library were determined using ELISA. The peptide arrays were incubated with a solution containing the scFv overnight at 4° C. Affinity information was used in iterative screens to define the sequence and conformation of epitopes. Heat maps of affinity information for two or more loops were generated.

| binding result | Binder |
| --- | --- |
| binds | B17 |
| binds | B18 |
| binds | B12 |
| binds | B13 |
